Drawing on article PMC6026317, “Molecular elements in FGF19 and FGF21 defining KLB/FGFR activity and specificity” (Molecular Metabolism, 2018), this text covers IC50 for one molecule.

In test [1] the target is T1, Soluble human FGFR4/KLB receptor complex (FGFR4 ectodomain-Fc with soluble KLB) (human, UniProt P22455 22-369; Q86Z14 1-996).
T1 construct: human FGFR4 ectodomain fused to Fc, coupled to Protein A acceptor beads; human beta-Klotho (KLB) protein, called human soluble KLB; also called hFGFR4/KLB; source: bought: R&D Systems (both chains)
T1 sequence (looked up) 1: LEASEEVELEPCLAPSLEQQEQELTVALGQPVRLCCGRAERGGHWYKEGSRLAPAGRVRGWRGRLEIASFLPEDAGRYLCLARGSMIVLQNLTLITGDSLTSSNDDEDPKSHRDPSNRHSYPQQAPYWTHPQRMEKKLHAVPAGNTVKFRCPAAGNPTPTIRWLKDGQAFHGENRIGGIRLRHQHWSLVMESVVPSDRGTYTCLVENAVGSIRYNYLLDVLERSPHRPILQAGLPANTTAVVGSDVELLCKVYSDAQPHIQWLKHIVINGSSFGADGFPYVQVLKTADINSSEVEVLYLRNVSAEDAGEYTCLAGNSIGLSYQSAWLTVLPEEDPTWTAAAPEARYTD
T1 sequence (looked up) 2: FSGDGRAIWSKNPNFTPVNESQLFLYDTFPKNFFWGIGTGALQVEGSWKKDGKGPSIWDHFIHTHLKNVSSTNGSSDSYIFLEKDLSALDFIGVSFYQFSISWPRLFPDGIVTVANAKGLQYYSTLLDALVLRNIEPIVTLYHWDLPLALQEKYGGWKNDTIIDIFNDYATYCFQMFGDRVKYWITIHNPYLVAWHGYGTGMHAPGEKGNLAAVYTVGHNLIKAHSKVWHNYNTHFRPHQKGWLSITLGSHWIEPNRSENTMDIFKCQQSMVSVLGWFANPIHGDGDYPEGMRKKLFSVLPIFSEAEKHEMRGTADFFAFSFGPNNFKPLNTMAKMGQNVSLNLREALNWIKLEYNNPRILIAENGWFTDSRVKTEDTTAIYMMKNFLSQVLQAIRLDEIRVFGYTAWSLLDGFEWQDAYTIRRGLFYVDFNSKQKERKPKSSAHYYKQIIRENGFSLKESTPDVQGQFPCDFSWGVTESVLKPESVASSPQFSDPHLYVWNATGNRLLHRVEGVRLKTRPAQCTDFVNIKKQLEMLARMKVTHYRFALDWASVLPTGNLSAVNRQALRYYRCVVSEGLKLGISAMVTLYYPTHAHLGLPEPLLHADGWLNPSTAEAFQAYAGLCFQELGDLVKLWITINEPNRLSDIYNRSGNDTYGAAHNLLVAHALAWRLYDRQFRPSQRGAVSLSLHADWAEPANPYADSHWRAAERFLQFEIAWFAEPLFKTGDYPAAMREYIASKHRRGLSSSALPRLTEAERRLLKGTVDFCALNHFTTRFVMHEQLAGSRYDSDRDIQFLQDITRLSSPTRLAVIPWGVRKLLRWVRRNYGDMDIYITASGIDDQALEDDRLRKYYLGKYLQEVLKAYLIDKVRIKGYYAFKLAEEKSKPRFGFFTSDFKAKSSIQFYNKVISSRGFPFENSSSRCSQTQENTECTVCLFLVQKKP
The test can be described thus: AlphaScreen or HTRF; cell-free competition: biotinylated FGF21 on streptavidin donor beads, FGFR1c-Fc or FGFR4-Fc ectodomain on Protein A acceptor beads, human soluble KLB added to give the signal; 5 μg/ml heparin, 0.1% BSA; increasing doses of unlabelled protein or peptide displace biotinylated FGF21. The note with it: both partners purified. In general terms: Bead proximity is the source of the signal in Alpha formats.

Test [2] deals with T2, Soluble human FGFR1c/KLB receptor complex (FGFR1c ectodomain-Fc with soluble KLB) (human, UniProt P11362 22-376; Q86Z14 1-996).
T2 construct: human FGFR1c ectodomain fused to Fc, coupled to Protein A acceptor beads; human beta-Klotho (KLB) protein, called human soluble KLB; also called FGFR1/KLB complex; soluble FGFR1/KLB receptor complex; source: bought: R&D Systems (both chains)
T2 sequence (looked up) 1: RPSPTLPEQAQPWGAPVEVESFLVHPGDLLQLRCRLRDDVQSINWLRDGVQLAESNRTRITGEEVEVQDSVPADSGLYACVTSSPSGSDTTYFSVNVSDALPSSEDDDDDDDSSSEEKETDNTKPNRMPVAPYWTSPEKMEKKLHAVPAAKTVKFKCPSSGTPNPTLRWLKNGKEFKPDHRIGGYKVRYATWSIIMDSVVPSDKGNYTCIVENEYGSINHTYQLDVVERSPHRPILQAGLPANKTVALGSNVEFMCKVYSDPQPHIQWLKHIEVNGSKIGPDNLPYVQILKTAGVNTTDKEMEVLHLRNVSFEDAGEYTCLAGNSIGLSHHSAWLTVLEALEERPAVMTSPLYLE
T2 sequence (looked up) 2: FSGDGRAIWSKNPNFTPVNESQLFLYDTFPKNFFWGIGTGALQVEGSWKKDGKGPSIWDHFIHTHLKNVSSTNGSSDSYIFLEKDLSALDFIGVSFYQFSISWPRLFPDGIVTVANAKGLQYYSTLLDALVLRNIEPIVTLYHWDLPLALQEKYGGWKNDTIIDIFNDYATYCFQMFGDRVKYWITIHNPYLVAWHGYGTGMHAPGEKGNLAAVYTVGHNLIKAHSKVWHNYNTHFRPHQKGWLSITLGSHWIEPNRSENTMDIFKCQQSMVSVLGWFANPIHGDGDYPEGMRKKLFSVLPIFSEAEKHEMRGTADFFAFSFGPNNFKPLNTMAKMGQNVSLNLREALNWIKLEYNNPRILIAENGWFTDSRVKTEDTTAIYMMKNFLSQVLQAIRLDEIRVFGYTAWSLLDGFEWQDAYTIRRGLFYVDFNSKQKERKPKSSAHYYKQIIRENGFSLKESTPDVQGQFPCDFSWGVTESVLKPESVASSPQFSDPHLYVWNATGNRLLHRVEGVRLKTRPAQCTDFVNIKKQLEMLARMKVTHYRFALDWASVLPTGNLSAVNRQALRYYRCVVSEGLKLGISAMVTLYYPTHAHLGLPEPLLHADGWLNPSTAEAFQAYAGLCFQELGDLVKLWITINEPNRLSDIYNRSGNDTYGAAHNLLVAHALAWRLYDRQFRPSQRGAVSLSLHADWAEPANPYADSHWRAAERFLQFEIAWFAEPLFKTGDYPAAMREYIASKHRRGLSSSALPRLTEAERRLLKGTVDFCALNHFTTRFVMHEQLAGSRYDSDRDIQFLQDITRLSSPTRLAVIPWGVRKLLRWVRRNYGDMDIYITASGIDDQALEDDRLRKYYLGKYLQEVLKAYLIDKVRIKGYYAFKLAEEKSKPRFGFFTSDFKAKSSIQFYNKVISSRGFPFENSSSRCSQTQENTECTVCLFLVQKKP
The test is described as above. The note with it: both partners purified.

In general, IC50 refers to the midpoint of a concentration-inhibition curve.

B1: Human FGF21 (1-181) (ligand, UniProt Q9NSA1 29-209, looked up)
chain: HPIPDSSPLLQFGGQVRQRYLYTDDAQQTEAHLEIREDGTVGGAADQSPESLLQLKALKPGVIQILGVKTSRFLCQRPDGALYGSLHFDPEACSFRELLLEDGYNVYQSEAHGLPLHLPGNKSPHRDPAPRGPARFLPLPGLPPALPEPPGILAPQPPDVGSSDPLSMVGPSQGRSPSYAS
notes: also called fibroblast growth factor 21; native FGF21; source: E. coli OrigamiB (DE3), purified (Ni-NTA, SUMO protease digestion, Q-Sepharose)
For B1, the values for the half-maximal inhibitory concentration (IC50) in test [1] and in test [2] were 1220 nM and 123 nM, respectively.
